For two molecules, fold-change of OD 450 over negative control (BSA) results are on record in patent publication US20250270304A1.

Experiment in all cases: ELISA, coated antigen, OD450
Background: ELISA stands for enzyme-linked immunosorbent assay.

The target of assay [1] is T1, Inhibin A (Homo sapiens (Human)) (UniProt P05111).
T1 sequence 1: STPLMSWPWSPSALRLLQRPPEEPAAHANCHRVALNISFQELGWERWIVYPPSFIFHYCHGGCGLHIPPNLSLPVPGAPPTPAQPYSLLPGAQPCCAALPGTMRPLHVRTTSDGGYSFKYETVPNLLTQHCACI
T1 sequence 2: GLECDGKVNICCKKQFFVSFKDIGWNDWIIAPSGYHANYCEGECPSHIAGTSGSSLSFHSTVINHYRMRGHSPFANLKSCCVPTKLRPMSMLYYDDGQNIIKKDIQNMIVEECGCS

In assay [2] the target is T2, Activin B (Homo sapiens (Human)) (UniProt P09529).
T2 sequence: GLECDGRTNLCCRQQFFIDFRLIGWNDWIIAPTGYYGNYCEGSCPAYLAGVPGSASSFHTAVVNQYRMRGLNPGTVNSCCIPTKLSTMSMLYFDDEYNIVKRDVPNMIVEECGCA

For the next assay, the target named is Mature Activin A (human) (UniProt P08476).

B1: AB439 (antibody, IgG1, V domains shown)
VH: EVQLVQSGAEVKKPGASVKVSCKASGYTYTGYRISWVRQAPGQGLEWMGWIDPKSGRTNYAQKLQGRGTMTTDPSTSTAYMELRSLRSDDTAVYYCAREVKQWLVPGRGVYWFDPWGQGTLVTVSS
VL: ESALTQPASVSGSPGQSITISCTGTNIGLRSVSWYQQHPGKAPKLMIYDTNIRSSGVSNRFSGSKSGNTASLTISGLQAEDEADYYCSSYTSSSTDVFGGGTKLTVL
Take B1: the fold-change of OD 450 over negative control (BSA) in assay [1] stood at 1.38 fold; in assay [2] it was 1.17 fold.

B2: AB330 (antibody, IgG1, V domains shown)
VH: QVQLVQSGAEVKKPGASVKVSCKVSGYPSPATISWVRQAPGKGLEWMGWMNPKSGYTNYAQKFQGRVTMTEDTSTDTAYMELSSLKSEDTAVYYCATLHGSGLAFDIWGQGTMVTVSS
VL: DIQMTQSPSSVSASVGDRVTITCRASQDIKSDLAWYQQKPGKAPKLLIYRASARESGVPSRFSGSGSGTDFTLTISSLQPEDFANYYCQQYRSFPWSFGGGTKVEIK
In the case of B2, in the assay with Mature Activin A (human), the fold-change of OD 450 over negative control (BSA) came to 1.39 fold.
